The values below are quoted from earlier work in PMC9783754.

The target in this series is S100A12 (Homo sapiens) (UniProt P80511).

pKd: −log10 of the molar value.

Chain of S100A12 (P80511 2-92): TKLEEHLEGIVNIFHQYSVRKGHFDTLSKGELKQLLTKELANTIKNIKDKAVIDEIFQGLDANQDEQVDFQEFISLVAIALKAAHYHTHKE
Chain of S100A12 (Homo sapiens) (P80511 2-92): as above

For the substance S100A12 (from UniProt P80511), the pKd was 3.80.

The term pKd denotes −log10 of the Kd, conventionally taken in molar units.
